The target in test [1] is C2BBe1 fixed cells (GST-P31 competition). As to the kind of experiment: competition ELISA on fixed cells; vs GST-P31. On the technique in general: ELISA stands for enzyme-linked immunosorbent assay.
The target in test [2] is C2BBe1 fixed cells. As to the kind of experiment: competition ELISA on fixed cells; vs GST-PAX2.
For test [3], the target named is C2BBe1 fixed cells. Nature of the test: competition ELISA on fixed cells; vs GST-HAX42.
Test [4] has as its target C2BBe1 fixed cells. As to the kind of experiment: competition ELISA on fixed cells; vs GST-P31.

Where “and” joins values, the source holds several entries; their conditions need not be identical. Equal values may be shown once. Ends that are not written are not given here. * marks the point of attachment. Dansyl = CN(C)c1cccc2c(S(=O)(=O)*)cccc12

One may read the IC50 as the concentration needed to halve the response being measured. A lower IC50 goes with greater potency. As for K(Dansyl)SARDSGPAEDGSRAVRLNGVENANTRKSSRSNPRGRRHPGG-NH2 [z024(P31)], the IC50 in test [1] was 0.94 µM. This counts as sub-micromolar.
Consider K(Dansyl)STPPSREAYSRPYSVDSDSDTNAKHSSHNRRLRTRSRPNG-NH2 [ELAN018(PAX2)], for which the IC50 in test [2] is 0.6 µM and 1 µM; in test [3], 0.23 µM.
In turn, K(Dansyl)SDHALGTNLRSDNAKEPGDYNCCGNGNSTGRKVFNRRRPSAIPT-NH2 (cysteine pairing not given here) [ELAN021(HAX42)] showed an IC50 in test [3] of 5.5 µM.
The molecule K(Dansyl)SARDSGPAEDGSRAVRLNGVENANTRKSSRSNPRGRRHPGG-NH2 [ELAN024(P31)] came in with a half-maximal inhibitory concentration (IC50) in test [4] of 0.5 µM.
As to K(Dansyl)SDHALGTNLRSDNAKEPGDYNCCGNGNSTGRKVFNRRRPSAIPT-NH2 (cysteine pairing not given here) [Z21(HAX42)], the half-inhibitory concentration (IC50) amounted to 1.7 µM in test [4] and 0.7 µM in test [2].
